{"source": "patent US20220403025A1", "target": "L1 (DV1-GV4) antigen: soluble heterodimeric γδ TCR in leucine zipper format (TRDV1/TRGV4) (human)", "sequence (main, as listed by the source)": "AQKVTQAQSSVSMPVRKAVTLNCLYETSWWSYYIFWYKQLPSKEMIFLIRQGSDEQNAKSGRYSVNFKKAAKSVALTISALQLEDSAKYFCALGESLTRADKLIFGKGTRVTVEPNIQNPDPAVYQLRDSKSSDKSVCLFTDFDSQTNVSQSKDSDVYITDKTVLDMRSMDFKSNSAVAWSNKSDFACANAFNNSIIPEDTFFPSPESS", "experiment": "SPR (MASS-2), IgG captured via protein G (100 nM for TS8.2), L1 as analyte, steady-state 1:1 fit"}
{"substance": "TS8.2 (commercial anti-Vδ1 antibody; Human TCR Vδ1 purified mAb, ThermoFisher TCR1730)", "values": [{"measurement": "Kd", "result": 44, "unit": "nM"}]}
